What was measured:
[1] = target: T1, human EGFR on cells (human, UniProt P00533 25-1210); experiment: FACS, VHH-His on MDA-MB-468 cells
T1 construct: whole, on cells; the cell line is named under assay; also called CHO-S-EGFR; CHOK1-huEGFR

[2] = target: T2, human EGFR-his (ECD, Met1-Ser645) (human, UniProt P00533 25-645); experiment: SPR, antigen amine-coupled on GLM chip, antibody injected, 1:1 model
T2 construct: range 1-645; Bought; range as printed includes Met1

[3] = target: T3, cynomolgus monkey EGFR-his (ECD, Met1-Ser645) (cynomolgus monkey, UniProt A0A2K5WK39 1-645); experiment: as above
T3 construct: range 1-645; Bought; range as printed includes Met1

[4] = target: T4, cynomolgus monkey cMet-his (ECD, Met1-Thr932) (cynomolgus monkey, UniProt A0A2K5UM36 25-932); experiment: as above
T4 construct: Bought; range as printed includes Met1
T4 sequence (A0A2K5UM36 entry or part of it limits assumed, form in doubt): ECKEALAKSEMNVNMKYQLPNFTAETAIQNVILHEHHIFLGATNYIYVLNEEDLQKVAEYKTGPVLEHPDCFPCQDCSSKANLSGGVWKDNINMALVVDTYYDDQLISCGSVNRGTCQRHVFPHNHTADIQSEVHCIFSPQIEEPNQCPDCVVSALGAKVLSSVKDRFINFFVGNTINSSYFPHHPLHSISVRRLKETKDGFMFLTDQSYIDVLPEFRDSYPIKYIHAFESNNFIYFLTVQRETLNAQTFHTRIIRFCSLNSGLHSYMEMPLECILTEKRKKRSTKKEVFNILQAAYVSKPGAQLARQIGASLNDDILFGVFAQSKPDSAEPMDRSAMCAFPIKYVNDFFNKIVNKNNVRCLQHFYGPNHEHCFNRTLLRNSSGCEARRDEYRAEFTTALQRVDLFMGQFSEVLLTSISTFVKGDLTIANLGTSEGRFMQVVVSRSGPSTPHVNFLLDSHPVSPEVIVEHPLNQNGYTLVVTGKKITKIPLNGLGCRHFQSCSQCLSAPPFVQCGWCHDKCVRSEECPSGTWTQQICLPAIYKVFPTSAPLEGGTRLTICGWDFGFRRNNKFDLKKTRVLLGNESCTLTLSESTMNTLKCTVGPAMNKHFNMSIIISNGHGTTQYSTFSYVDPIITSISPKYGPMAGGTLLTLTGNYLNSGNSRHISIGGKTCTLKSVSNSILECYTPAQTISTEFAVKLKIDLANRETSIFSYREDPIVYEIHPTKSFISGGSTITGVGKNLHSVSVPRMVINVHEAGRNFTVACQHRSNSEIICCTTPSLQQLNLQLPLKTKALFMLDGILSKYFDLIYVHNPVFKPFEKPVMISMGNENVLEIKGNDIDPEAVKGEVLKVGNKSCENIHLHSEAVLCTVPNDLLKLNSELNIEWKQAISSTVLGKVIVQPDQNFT

[5] = target: T5, human cMet-his (ECD, Met1-Thr932) (human, UniProt P08581 25-932); experiment: as above
T5 construct: Bought; range as printed includes Met1
T5 sequence (P08581 25-932): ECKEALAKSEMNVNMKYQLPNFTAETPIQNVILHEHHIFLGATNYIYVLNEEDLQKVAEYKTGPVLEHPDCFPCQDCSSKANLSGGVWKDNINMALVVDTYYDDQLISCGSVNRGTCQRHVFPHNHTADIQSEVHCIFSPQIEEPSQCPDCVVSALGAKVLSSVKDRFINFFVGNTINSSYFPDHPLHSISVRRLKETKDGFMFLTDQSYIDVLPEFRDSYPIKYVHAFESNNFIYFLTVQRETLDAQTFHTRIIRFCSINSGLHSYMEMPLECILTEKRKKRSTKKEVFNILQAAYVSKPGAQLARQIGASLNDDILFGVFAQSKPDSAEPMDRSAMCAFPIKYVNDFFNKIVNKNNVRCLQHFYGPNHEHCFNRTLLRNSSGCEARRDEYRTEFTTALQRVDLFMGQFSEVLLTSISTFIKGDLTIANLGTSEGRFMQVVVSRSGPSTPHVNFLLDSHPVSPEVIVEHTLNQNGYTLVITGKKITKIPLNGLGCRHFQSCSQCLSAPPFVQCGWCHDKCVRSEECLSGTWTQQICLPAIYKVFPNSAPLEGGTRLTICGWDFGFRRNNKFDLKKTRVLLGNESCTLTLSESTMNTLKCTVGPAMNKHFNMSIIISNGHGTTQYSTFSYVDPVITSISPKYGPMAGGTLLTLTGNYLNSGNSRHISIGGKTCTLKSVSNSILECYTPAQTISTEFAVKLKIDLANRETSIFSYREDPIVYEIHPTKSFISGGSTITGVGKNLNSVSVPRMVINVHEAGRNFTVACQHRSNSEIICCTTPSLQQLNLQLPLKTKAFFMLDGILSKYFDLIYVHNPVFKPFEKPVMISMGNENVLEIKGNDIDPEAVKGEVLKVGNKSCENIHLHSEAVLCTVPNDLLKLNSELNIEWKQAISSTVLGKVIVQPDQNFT

B1: zn10A1.m6 (VHH, not shown: small tags and cut ends)
VHH: QVQLVESGGGLVQPGGSLRLSCAASGRTGSLHAMGWFRQAPGKERERVATLNLSDGSAVTADSVKGRFTISTDNSKNSVYLQMNSLRAEDTAVYYCTASRSPSGIRYYKPDYWGQGTLVTVSS
[1]
  Maximum MFI value: 9680 MFI

B2: pn10A1.m1 (VHH, not shown: small tags and cut ends)
VHH: QVQLVESGGGLVQAGGSLRLSCAASGRTGSLHAMGWFRQAPGKERERVATLQLSDGSAVTADSVKGRFTISTDNTKNSVYLQMNSLKPEDTAVYYCTASRSPSGIRYYKPDYWGQGTQVTVSS
[1]
  Maximum MFI value: 10300 MFI

B3: pn10A1.m5 (VHH, not shown: small tags and cut ends)
VHH: QVQLVESGGGLVQAGGSLRLSCAASGRTGSLHAMGWFRQAPGKERERVATLNLSDVSAVTADSVKGRFTISTDNTKNSVYLQMNSLKPEDTAVYYCTASRSPSGIRYYKPDYWGQGTQVTVSS
[1]
  Maximum MFI value: 27400 MFI

B4: pn10A1.m3 (VHH, not shown: small tags and cut ends)
VHH: QVQLVESGGGLVQAGGSLRLSCAASGRTGSLHAMGWFRQAPGKERERVATLQLTDGSAVTADSVKGRFTISTDNTKNSVYLQMNSLKPEDTAVYYCTASRSPSGIRYYKPDYWGQGTQVTVSS
[1]
  Maximum MFI value: 5480 MFI

B5: pn10A1.m4 (VHH, not shown: small tags and cut ends)
VHH: QVQLVESGGGLVQAGGSLRLSCAASGRTGSLHAMGWFRQAPGKERERVATLNLSEGSAVTADSVKGRFTISTDNTKNSVYLQMNSLKPEDTAVYYCTASRSPSGIRYYKPDYWGQGTQVTVSS
[1]
  Maximum MFI value: 5260 MFI

B6: pn10A1.m2 (VHH, not shown: small tags and cut ends)
VHH: QVQLVESGGGLVQAGGSLRLSCAASGRTGSLHAMGWFRQAPGKERERVATLNLADGSAVTADSVKGRFTISTDNTKNSVYLQMNSLKPEDTAVYYCTASRSPSGIRYYKPDYWGQGTQVTVSS
[1]
  Maximum MFI value: 3770 MFI

B7: pn10A1.m6 (VHH, not shown: small tags and cut ends)
VHH: QVQLVESGGGLVQAGGSLRLSCAASGRTGSLHAMGWFRQAPGKERERVATLNLSDASAVTADSVKGRFTISTDNTKNSVYLQMNSLKPEDTAVYYCTASRSPSGIRYYKPDYWGQGTQVTVSS
[1]
  Maximum MFI value: 5790 MFI

B8: V-n9B8 anti-EGFR VHH-His (VHH, not shown: small tags and cut ends)
VHH: QVQLVESGGGLVQPGGSLRLSCAASGLTFSYYAMAWFRQAPGKEREFVAAINWNGGNTYNTDSVKGRFTISRDNAKNTVYLQMNSLKPEDTAVYYCAVRYNSASYLVARSSDYNYWGQGTLVTVSS
notes: Monovalent parent VHH
[1]
  EC50: 2.04 nM
  Maximum MFI value: 94600 MFI

B9: zn9B8.m4 (VHH, not shown: small tags and cut ends)
VHH: EVQLLESGGGLVQPGGSLRLSCAASGLTFSYYAMAWFRQAPGKEREFVAAINWNGGNTYNTDSVKGRFTISRDNSKNTVYLQMNSLRSEDTAVYYCAVRYNSASYLVARSSDYNYWGQGTLVTVSS
notes: Humanized anti-EGFR VHH-His
[1]
  EC50: 1.43 nM
  Maximum MFI value: 57100 MFI

B10: V-3 (5B10-7A12-9A2) (bispecific antibody)
chain: AVQLVDSGGGLVQPGGSLRLDCSASGTIIGTYTMAWYRQAPGKQREMVAIITPGGGSHHADSVKGRFTISRDNGKSTVYLQMSSLKFEDTAVYYCNAKARWGTTEYWGQGTQVTVSSGGGGSEVQLVESGGGLVQAGGSLRLSCVASGNIFSSNHMGWFRQAPGKQREFIAYITTREITNYADSVKGRFTISRDNTKNTVYLQMNVLKPEDTAVYYCIADQSREIRRSWGQGTQVTVSSGGGGSGGGGSQSQLAESGGGLVQSGGSLGLSCVASGFTISRSIMSWYRQPPGKERDWVASIGSAGNTNYVDSVKGRFTISRDVAKNTVYLQMNSLKPEDTAVYYCKTTLAVSFSEYWGQGTQVTVSS
notes: Single-chain trispecific anti-EGFR/cMet antibody
[2]
  Kd: 25.1 nM
  koff: 0.003 s⁻¹
  kon: 119000 M⁻¹ s⁻¹
[3]
  Kd: 21.8 nM
  koff: 0.00246 s⁻¹
  kon: 112000 M⁻¹ s⁻¹
[4]
  Kd: 5.99 nM
  koff: 0.00106 s⁻¹
  kon: 176000 M⁻¹ s⁻¹
[5]
  Kd: 8.61 nM
  koff: 0.00158 s⁻¹
  kon: 183000 M⁻¹ s⁻¹

B11: zn10A1.m5 (VHH, not shown: small tags and cut ends)
VHH: QVQLVQSGPEVKKPGTSVKVSCKASGRTGSLHAMGWFRQARGQERERVATLNLSDGSAVTADSVKGRFTITTDNSKNSVYMELSSLRSEDTAVYYCTASRSPSGIRYYKPDYWGQGTMVTVSS
[1]
  Maximum MFI value: 3480 MFI
